Measured values published in ChEMBL document CHEMBL4828702, “Identification of Novel High-Affinity Substrates of OCT1 Using Machine Learning-Guided Virtual Screening and Experimental Validation” (J Med Chem, 2021).

Tests used:
OCT1 = experiment: Ratio of drug uptake in human OCT1 expressing HEK293 cells at 2.5 uM to drug uptake in empty vector transfected human HEK293 cells at 2.5 uM; assay type: ADME, cell-based
[1] = molecular target: Solute carrier family 22 member 1 (Homo sapiens) (UniProt O15245); experiment: Substrate activity at human OCT1 expressed in HEK293 cells assessed as increase in compound uptake by measuring intrinsic clearance incubated for 2 mins by LC-MS/MS analysis
[2] = substrate: NCC(O)c1ccc(O)cc1; experiment: (§1) Substrate activity at human OCT1 expressed in HEK293 cells assessed as increase in compound uptake by measuring Vmax incubated for 2 mins by LC-MS/MS analysis; assay type: cell-based
[3] = substrate: CC(C)NCC(O)c1ccc(NS(C)(=O)=O)cc1; experiment: as §1; assay type: cell-based
[4] = substrate: CC(C)NC[C@H](O)COc1ccc(O)cc1; experiment: as §1; assay type: cell-based
[5] = substrate: C[N+]1(C)[C@@H]2C[C@H](OC(=O)[C@H](CO)c3ccccc3)C[C@H]1[C@@H]1O[C@@H]12; experiment: as §1; assay type: cell-based
[6] = substrate: CC[N+](CC)(CC)Cc1ccccc1; experiment: as §1; assay type: cell-based
[7] = substrate: CC[N+](C)(C)c1cccc(O)c1; experiment: as §1; assay type: cell-based
[8] = substrate: CN[C@@H]1CCc2[nH]c3ccc(C(N)=O)cc3c2C1; experiment: as §1; assay type: cell-based
[9] = substrate: CC(CCc1ccc(O)cc1)NCCc1ccc(O)c(O)c1; experiment: as §1; assay type: cell-based
[10] = substrate: Nc1ccncc1N; experiment: as §1; assay type: cell-based
[11] = substrate: NC(N)=Nc1nc(CSCC/C(N)=N/S(N)(=O)=O)cs1; experiment: as §1; assay type: cell-based
[12] = substrate: C[N+]1(CCC(C(N)=O)(c2ccccc2)c2ccccc2)CCCCC1; experiment: as §1; assay type: cell-based
[13] = substrate: CNC[C@H](O)c1cccc(O)c1; experiment: as §1; assay type: cell-based
[14] = substrate: N=C(N)NC(=O)Cc1c(Cl)cccc1Cl; experiment: as §1; assay type: cell-based
[15] = substrate: NCC(O)c1cccc(O)c1; experiment: as §1; assay type: cell-based
[16] = substrate: N=C(N)NCc1cccc(I)c1; experiment: as §1; assay type: cell-based
[17] = substrate: CCN(CC)CCNC(=O)c1ccc(NS(C)(=O)=O)cc1; experiment: as §1; assay type: cell-based
[18] = substrate: CC(CCc1ccc(O)cc1)NCC(O)c1ccc(O)cc1; experiment: as §1; assay type: cell-based
[19] = substrate: CC[N+](CC)(CC(=O)Nc1c(C)cccc1C)Cc1ccccc1; experiment: as §1; assay type: cell-based
[20] = substrate: C[N+]1(C)CCN(c2ccccc2)CC1; experiment: as §1; assay type: cell-based
[21] = substrate: CCN(CC)C(=O)C1(c2ccccc2)CC1CN; experiment: as §1; assay type: cell-based
[22] = substrate: CC(NCCc1ccc(O)cc1)C(O)c1ccc(O)cc1; experiment: as §1; assay type: cell-based
[23] = substrate: NCC(O)c1ccc(O)cc1; experiment: (§2) Substrate activity at human OCT1 expressed in HEK293 cells assessed as increase in compound uptake by measuring Km incubated for 2 mins by LC-MS/MS analysis; assay type: cell-based
[24] = substrate: CC(C)NCC(O)c1ccc(NS(C)(=O)=O)cc1; experiment: as §2; assay type: cell-based
[25] = substrate: CC(C)NC[C@H](O)COc1ccc(O)cc1; experiment: as §2; assay type: cell-based
[26] = substrate: C[N+]1(C)[C@@H]2C[C@H](OC(=O)[C@H](CO)c3ccccc3)C[C@H]1[C@@H]1O[C@@H]12; experiment: as §2; assay type: cell-based
[27] = substrate: CC[N+](CC)(CC)Cc1ccccc1; experiment: as §2; assay type: cell-based
[28] = substrate: CC[N+](C)(C)c1cccc(O)c1; experiment: as §2; assay type: cell-based
[29] = substrate: CN[C@@H]1CCc2[nH]c3ccc(C(N)=O)cc3c2C1; experiment: as §2; assay type: cell-based
[30] = substrate: CC(CCc1ccc(O)cc1)NCCc1ccc(O)c(O)c1; experiment: as §2; assay type: cell-based
[31] = substrate: Nc1ccncc1N; experiment: as §2; assay type: cell-based
[32] = substrate: NC(N)=Nc1nc(CSCC/C(N)=N/S(N)(=O)=O)cs1; experiment: as §2; assay type: cell-based
[33] = substrate: C[N+]1(CCC(C(N)=O)(c2ccccc2)c2ccccc2)CCCCC1; experiment: as §2; assay type: cell-based
[34] = substrate: CNC[C@H](O)c1cccc(O)c1; experiment: as §2; assay type: cell-based
[35] = substrate: N=C(N)NC(=O)Cc1c(Cl)cccc1Cl; experiment: as §2; assay type: cell-based
[36] = substrate: NCC(O)c1cccc(O)c1; experiment: as §2; assay type: cell-based
[37] = substrate: N=C(N)NCc1cccc(I)c1; experiment: as §2; assay type: cell-based
[38] = substrate: CCN(CC)CCNC(=O)c1ccc(NS(C)(=O)=O)cc1; experiment: as §2; assay type: cell-based
[39] = substrate: CC(CCc1ccc(O)cc1)NCC(O)c1ccc(O)cc1; experiment: as §2; assay type: cell-based
[40] = substrate: CC[N+](CC)(CC(=O)Nc1c(C)cccc1C)Cc1ccccc1; experiment: as §2; assay type: cell-based
[41] = substrate: C[N+]1(C)CCN(c2ccccc2)CC1; experiment: as §2; assay type: cell-based
[42] = substrate: CCN(CC)C(=O)C1(c2ccccc2)CC1CN; experiment: as §2; assay type: cell-based
[43] = substrate: CC(NCCc1ccc(O)cc1)C(O)c1ccc(O)cc1; experiment: as §2; assay type: cell-based

Solute carrier family 22 member 1 (Homo sapiens), sequence (O15245 whole entry, looked up): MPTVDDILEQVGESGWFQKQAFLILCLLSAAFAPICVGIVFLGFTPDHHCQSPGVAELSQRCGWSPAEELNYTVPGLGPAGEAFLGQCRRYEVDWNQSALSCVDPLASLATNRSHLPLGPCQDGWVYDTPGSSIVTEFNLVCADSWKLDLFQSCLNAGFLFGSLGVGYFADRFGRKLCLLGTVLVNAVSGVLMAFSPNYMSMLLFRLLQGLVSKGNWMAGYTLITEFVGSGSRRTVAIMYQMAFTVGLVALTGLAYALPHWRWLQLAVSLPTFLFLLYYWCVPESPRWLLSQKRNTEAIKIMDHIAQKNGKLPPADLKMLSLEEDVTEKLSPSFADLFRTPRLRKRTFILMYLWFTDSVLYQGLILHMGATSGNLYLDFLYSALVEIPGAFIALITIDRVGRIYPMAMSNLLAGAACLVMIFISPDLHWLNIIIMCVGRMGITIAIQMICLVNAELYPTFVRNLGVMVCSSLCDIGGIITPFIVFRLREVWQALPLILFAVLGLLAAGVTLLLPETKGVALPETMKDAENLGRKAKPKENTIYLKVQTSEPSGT

In the case of `N=C(N)NCc1cccc(I)c1` [IOBENGUANE], the uptake ratio at 2.5 µM (OCT1) is reported as 10.1 and the clearance [1] is reported as 3160 mL/min/g.

In the case of `NCC(O)c1cccc(O)c1` (stereo unspecified) [NORFENEFRINE], the uptake ratio at 2.5 µM (OCT1) is reported as 2.1 and the clearance [1] is reported as 4.6 mL/min/g.

Molecule `CC[N+](C)(C)c1cccc(O)c1` [EDROPHONIUM] has an uptake ratio at 2.5 µM (OCT1) of 42.6 and a clearance [1] of 99.5 mL/min/g.

`C[N+]1(CCC(C(N)=O)(c2ccccc2)c2ccccc2)CCCCC1` gave an uptake ratio at 2.5 µM (OCT1) of 30.9 and a clearance [1] of 114 mL/min/g.

Molecule `C[N+]1(C)CCN(c2ccccc2)CC1` [DIMETHYLPHENYLPIPERAZINIUM] has an uptake ratio at 2.5 µM (OCT1) of 38.9 and a clearance [1] of 47.2 mL/min/g.

With `CN[C@@H]1CCc2[nH]c3ccc(C(N)=O)cc3c2C1` [FROVATRIPTAN] the uptake ratio at 2.5 µM (OCT1) was 33.1 and the clearance [1] was 50.3 mL/min/g.

In the case of `Nc1ccncc1N` [AMIFAMPRIDINE], the uptake ratio at 2.5 µM (OCT1) is reported as 6.8 and the clearance [1] is reported as 18.8 mL/min/g.

For `CC[N+](CC)(CC)Cc1ccccc1`, the uptake ratio at 2.5 µM (OCT1) was 67.5 and the clearance [1] was 62.8 mL/min/g.

In the case of `NC(N)=Nc1nc(CSCC/C(N)=N/S(N)(=O)=O)cs1`, the clearance [1] is reported as 87.4 mL/min/g.

In the case of `CC(C)NC[C@H](O)COc1ccc(O)cc1` [PRENALTEROL], the uptake ratio at 2.5 µM (OCT1) is reported as 5.3 and the clearance [1] is reported as 12.4 mL/min/g.

`CC(NCCc1ccc(O)cc1)C(O)c1ccc(O)cc1` (stereo unspecified) [RITODRINE] gave an uptake ratio at 2.5 µM (OCT1) of 7.6 and a clearance [1] of 104 mL/min/g.

Molecule `CC(CCc1ccc(O)cc1)NCC(O)c1ccc(O)cc1` (stereo unspecified) [RACTOPAMINE] has an uptake ratio at 2.5 µM (OCT1) of 7.1 and a clearance [1] of 111 mL/min/g.

Work on `CCN(CC)CCNC(=O)c1ccc(NS(C)(=O)=O)cc1` [SEMATILIDE] yielded an uptake ratio at 2.5 µM (OCT1) of 3.5 and a clearance [1] of 3.3 mL/min/g.

With `CC(CCc1ccc(O)cc1)NCCc1ccc(O)c(O)c1` (stereo unspecified) [DOBUTAMINE] the uptake ratio at 2.5 µM (OCT1) was 14.7 and the clearance [1] was 5.2 mL/min/g.

In the case of `CC[N+](CC)(CC(=O)Nc1c(C)cccc1C)Cc1ccccc1` [DENATONIUM], the uptake ratio at 2.5 µM (OCT1) is reported as 21.6 and the clearance [1] is reported as 71.4 mL/min/g.

In the case of `CNC[C@H](O)c1cccc(O)c1` [PHENYLEPHRINE], the uptake ratio at 2.5 µM (OCT1) is reported as 10.6 and the clearance [1] is reported as 17.3 mL/min/g.

In the case of `NCC(O)c1ccc(O)cc1` (stereo unspecified), the clearance [1] is reported as 9.1 mL/min/g.

`N=C(N)NC(=O)Cc1c(Cl)cccc1Cl` [GUANFACINE] was tested, and the uptake ratio at 2.5 µM (OCT1) was 4.3 and the clearance [1] was 138 mL/min/g.

B1: POU domain, class 2, transcription factor 1 (Homo sapiens), P14859 (protein)
chain: MNNPSETSKPSMESGDGNTGTQTNGLDFQKQPVPVGGAISTAQAQAFLGHLHQVQLAGTSLQAAAQSLNVQSKSNEESGDSQQPSQPSQQPSVQAAIPQTQLMLAGGQITGLTLTPAQQQLLLQQAQAQAQLLAAAVQQHSASQQHSAAGATISASAATPMTQIPLSQPIQIAQDLQQLQQLQQQNLNLQQFVLVHPTTNLQPAQFIISQTPQGQQGLLQAQNLLTQLPQQSQANLLQSQPSITLTSQPATPTRTIAATPIQTLPQSQSTPKRIDTPSLEEPSDLEELEQFAKTFKQRRIKLGFTQGDVGLAMGKLYGNDFSQTTISRFEALNLSFKNMCKLKPLLEKWLNDAENLSSDSSLSSPSALNSPGIEGLSRRRKKRTSIETNIRVALEKSFLENQKPTSEEITMIADQLNMEKEVIRVWFCNRRQKEKRINPPSSGGTSSSPIKAIFPSPTSLVATTPSLVTSSAATTLTVSPVLPLTSAAVTNLSVTGTSDTTSNNTATVISTAPPASSAVTSPSLSPSPSASASTSEASSASETSTTQTTSTPLSSPLGTSQVMVTASGLQTAAAAALQGAAQLPANASLAAMAAAAGLNPSLMAPSQFAAGGALLSLNPGTLSGALSPALMSNSTLATIQALASGGSLPITSLDATGNLVFANAGGAPNIVTAPLFLNPQNLSLLTSNPVSLVSAAAASAGNSAPVASLHATSTSAESIQNSLFTVASASGAASTTTTASKAQ
With B1 the Vmax [2] was 3540 pmol/mg/min, the Vmax [3] was 2760 pmol/mg/min and the Vmax [4] was 165 pmol/mg/min. The Vmax [5] was 1210 pmol/mg/min, the Vmax [6] was 2420 pmol/mg/min and the Vmax [7] was 2630 pmol/mg/min. It also gave a Vmax [8] of 3110 pmol/mg/min, a Vmax [9] of 147 pmol/mg/min and a Vmax [10] of 9570 pmol/mg/min. For the same molecule, the Vmax [11] was 3120 pmol/mg/min, the Vmax [12] was 971 pmol/mg/min and the Vmax [13] was 3820 pmol/mg/min. It also gave a Vmax [14] of 1180 pmol/mg/min, a Vmax [15] of 4550 pmol/mg/min and a Vmax [16] of 5030 pmol/mg/min. It also gave a Vmax [17] of 338 pmol/mg/min, a Vmax [18] of 234 pmol/mg/min and a Vmax [19] of 902 pmol/mg/min. The Vmax [20] was 2930 pmol/mg/min, the Vmax [21] was 340 pmol/mg/min and the Vmax [22] was 173 pmol/mg/min. The Km [23] was 389 µM, the Km [24] was 196 µM and the Km [25] was 13.3 µM. The Km [26] was 23.4 µM, the Km [27] was 38.6 µM and the Km [28] was 26.4 µM. The Km [29] was 61.9 µM, the Km [30] was 28.4 µM and the Km [31] was 508 µM. It also gave a Km [32] of 35.7 µM, a Km [33] of 8.6 µM and a Km [34] of 221 µM. The Km [35] was 8.6 µM, the Km [36] was 994 µM and the Km [37] was 15.9 µM. For the same molecule, the Km [38] was 102 µM, the Km [39] was 2.1 µM and the Km [40] was 12.6 µM. The Km [41] was 62 µM, the Km [42] was 2.26 µM and the Km [43] was 1.67 µM.
